Assay results as given in publication PMC12711580, “Florigen activation complex forms via multifaceted assembly in Arabidopsis” (Nature, 2025).

B1: MBP–FDc(T282E), N-terminal MBP-fused, truncated FD (amino acids 215–285) [Arabidopsis thaliana] / itself (parent)
chain: NRRHKRMIKNRESAARSRARKQAYTNELELEVAHLQAENARLKRQQDQLKMAAAIQQPKKNTLQRSSEAPF
B2: MBP–FDc(T282E), N-terminal MBP-fused, truncated FD (amino acids 215–285) [Arabidopsis thaliana] / GRF7 (14-3-3ν), recombinant [Arabidopsis thaliana] (parent)
chain 1: B1 chain
chain 2: MSSSREENVYLAKLAEQAERYEEMVEFMEKVAKTVDTDELTVEERNLLSVAYKNVIGARRASWRIISSIEQKEESRGNDDHVSIIKDYRGKIETELSKICDGILNLLDSHLVPTASLAESKVFYLKMKGDYHRYLAEFKTGAERKEAAESTLVAYKSAQDIALADLAPTHPIRLGLALNFSVFYYEILNSPDRACSLAKQAFDEAISELDTLGEESYKDSTLIMQLLRDNLTLWNSDINDEAGGDEIKEASKHEPEEGKPAETGQ

Variants of: B1
Test: SEC-MALS
Settings: with itself

Row | Variant | screen value [kD]
1 | NRRHKRMIKNRESAARSRARKQAYTNELELEVAHAQAENARLKRQQDQLKMAAAIQQPKKNTLQRSSEAPF [chain 1 L35A] | 55
2 | NRRHKRMIKNRESAARSRARKQAYTNEAELEVAHLQAENARLKRQQDQLKMAAAIQQPKKNTLQRSSEAPF [chain 1 L28A] | 55
3 | NRRHKRMIKNRESAARSRARKQAATNELALEVAHLQAENARLKRQQDQLKMAAAIQQPKKNTLQRSSEAPF [chain 1 Y24A E29A] | 55
4 | NRRHKRMIKNRESAARSRARKQAYTNELELEVAHLQAENARLKRQQDQAKMAAAIQQPKKNTLQRSSEAPF [chain 1 L49A] | 55
5 | NRRHKRMIKNRESAARSRARKQAYTNELELEVAHLQAENARAKRQQDQLKMAAAIQQPKKNTLQRSSEAPF [chain 1 L42A] | 55

Variants of: B2
Test: SEC-MALS
Settings: with GRF7 (14-3-3ν), free GRF7 peak marked 60 kD

Row | Variant | screen value [kD]
6 | chain 1 NRRHKRMIKNRESAARSRARKQAYTNELELEVAHAQAENARLKRQQDQLKMAAAIQQPKKNTLQRSSEAPF [chain 1 L35A] | 116
7 | chain 1 NRRHKRMIKNRESAARSRARKQAATNELALEVAHLQAENARLKRQQDQLKMAAAIQQPKKNTLQRSSEAPF [chain 1 Y24A E29A] | 117
8 | chain 1 NRRHKRMIKNRESAARSRARKQAYTNELELEVAHLQAENARLKRQQDQAKMAAAIQQPKKNTLQRSSEAPF [chain 1 L49A] | 168
9 | chain 1 NRRHKRMIKNRESAARSRARKQAYTNELELEVAHLQAENARAKRQQDQLKMAAAIQQPKKNTLQRSSEAPF [chain 1 L42A] | 117
